What was measured:
purified protein [1] = substrate: NCCc1ccc(O)c(O)c1; test: purified protein; assay type: biochemical, Malus domestica; details: 50 mM Tris-HCl pH 7.0, 25 °C, 3 mM SDS as activator
purified protein [2] = substrate: NCCc1ccc(O)cc1; test: purified protein; assay type: biochemical, Malus domestica; details: 50 mM Tris-HCl pH 7.0, 25 °C, 3 mM SDS as activator

B1: MdPPO1 (Malus domestica) (protein)
chain: KPIAPPDVSKCGPADLPQGAVPTNCCPPPSTKIIDFKLPAPAKLRIRPPAHAVDQAYRDKYYKAMELMKALPDDDPRSFKQQAAVHCAYCDGAYDQVGFPELELQIHNSWLFFPFHRYYLYFFEKILGKLINDPTFALPFWNWDSPAGMPLPAIYADPKSPLYDKLRSANHQPPTLVDLDYNGTEDNVSKETTINANLKIMYRQMVSNSKNAKLFFGNPYRAGDEPDPGGGSIEGTPHAPVHLWTGDNTQPNFEDMGNFYSAGRDPIFFAHHSNVDRMWSIWKTLGGKRTDLTDSDWLDSGFLFYNENAELVRVKVRDCLETKNLGYVYQDVDIPWLSSKPTPRRAKVALSKVAKKLGVAHAAVASSSKVVAGTEFPISLGSKISTVVKRPKQKKRSKKAKEDEEEILVIEGIEFDRDVAVKFDVYVNDVDDLPSGPDKTEFAGSFVSVPHSHKHKKKMNTILRLGLTDLLEEIEAEDDDSVVVTLVPKFGAVKIGGIKIEFAS
notes: latent pro-enzyme without transit peptide, C-terminal domain kept; GST tag cut (HRV3C, pGEX-6P-1 SmaI); E. coli BL21
Purified protein [1]
  Km: 480 ± 38 µM
  kcat: 100 ± 4.54 s⁻¹
Purified protein [2]
  Km: 710 ± 36 µM
  kcat: 9.5 ± 0.43 s⁻¹

From PMC5562730, “Three recombinantly expressed apple tyrosinases suggest the amino acids responsible for mono- versus diphenolase activity in plant polyphenol oxidases” (Scientific Reports, 2017)
